One assay has as its target T1, hY2R (Homo sapiens, UniProt P49146).
T1 construct: host or cells: CHO
T1 sequence (P49146 1-381): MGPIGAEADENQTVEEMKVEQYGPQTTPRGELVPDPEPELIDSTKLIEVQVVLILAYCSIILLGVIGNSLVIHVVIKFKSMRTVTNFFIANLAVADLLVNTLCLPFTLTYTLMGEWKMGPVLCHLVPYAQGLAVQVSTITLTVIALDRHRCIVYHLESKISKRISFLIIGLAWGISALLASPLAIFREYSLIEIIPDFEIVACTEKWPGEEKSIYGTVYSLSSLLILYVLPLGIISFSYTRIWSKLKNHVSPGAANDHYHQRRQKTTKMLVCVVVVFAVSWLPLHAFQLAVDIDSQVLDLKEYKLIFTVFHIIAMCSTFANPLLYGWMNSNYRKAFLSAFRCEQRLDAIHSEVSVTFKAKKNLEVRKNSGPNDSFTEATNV
The experiment in a line: Y2R radioligand competition binding, whole CHO-hY2R cells, [3H]propionyl-pNPY. The conditions noted are these: read-out: pKi ± SEM hY2R (converted). Here is the method: (§1) All radioligand binding assays were performed at intact Y receptor expressing cells at 23 ± 2 °C.
(In a radioligand displacement assay an active substance lowers the binding of a labelled ligand.)

The target of assay [1] is T2, Y4R (Homo sapiens, UniProt P50391). The experiment in a line: Y4R miniGsi recruitment assay (HEK293T-NlucN-mGsi/Y4R-NlucC cells). Also: relative to 1 µM hPP (100%). The format is cell-based. Further details: expressed in transfected cells; host or cells: HEK293T. The conditions noted are these: read-out: miniGsi recruitment Emax ± SEM. Here is the method: Furimazine was used as nanoluciferase substrate. The original stock was diluted 1:1000 in L15-HEPES to obtain the feed solution for the assay. Data analysis was performed based on the areas under the curves (time window: 45 min starting with the agonist addition) using GraphPad Prism 5. […] Efficacies Emax correspond to the upper plateaus of the normalized concentration–response curves.

The target of assay [2] is T3, hY4R (Homo sapiens, UniProt P50391). The experiment in a line: Y4R Ca2+ aequorin assay (CHO-hY4R-Gqi5-mtAEQ cells). Type of assay: cell-based. Further details: expressed in transfected cells; host or cells: CHO (co-expressing Gqi5 and mitochondrially targeted aequorin). As for the experimental part: The assay was performed with live CHO-hY4R-Gqi5-mtAEQ cells as previously described (used buffer: buffer III). Measurements were carried out on a Tecan Infinite Lumi plate reader. Data analysis was performed as reported using GraphPad Prism 5 for the calculation of the area under the curve. […] Efficacies Emax correspond to the upper plateaus of the normalized concentration–response curves.

Assay [3] has as its target T3, hY4R. The experiment in a line: Y4R radioligand competition binding, whole CHO-hY4R-Gqi5-mtAEQ cells, [3H]UR-KK200. Set-up: expressed in transfected cells; host or cells: CHO (co-expressing Gqi5 and mitochondrially targeted aequorin). The conditions noted are these: [3H]UR-KK200 c = 1 nM, read-out: pKi ± SEM hY4R (converted). Here is the method: as §1
(§2) (logarithmic form in the case of pKi values).

The target of a further assay is T4, hY5R (Homo sapiens, UniProt Q15761).
T4 construct: expressed in transfected cells; host or cells: HEC-1B (human endometrial cancer)
T4 sequence (Q15761 1-445): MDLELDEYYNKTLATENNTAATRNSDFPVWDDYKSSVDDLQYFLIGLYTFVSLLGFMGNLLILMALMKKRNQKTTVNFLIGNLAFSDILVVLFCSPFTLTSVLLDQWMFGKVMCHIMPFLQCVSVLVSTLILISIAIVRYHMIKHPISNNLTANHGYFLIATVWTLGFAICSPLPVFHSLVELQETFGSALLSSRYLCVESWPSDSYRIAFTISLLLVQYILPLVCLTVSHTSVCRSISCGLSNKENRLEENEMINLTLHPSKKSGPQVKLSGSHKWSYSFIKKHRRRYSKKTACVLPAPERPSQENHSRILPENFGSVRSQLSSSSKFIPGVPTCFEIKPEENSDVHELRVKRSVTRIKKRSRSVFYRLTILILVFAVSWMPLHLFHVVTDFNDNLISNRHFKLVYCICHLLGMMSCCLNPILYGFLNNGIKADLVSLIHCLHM
The experiment in a line: Y5R radioligand competition binding, whole HEC-1B-hY5R cells, [3H]propionyl-pNPY. The conditions noted are these: [3H]propionyl-pNPY c = 5 nM, read-out: pKi ± SEM hY5R (converted). As for the experimental part: as §1, §2

The next assay deals with T5, hY1R (Homo sapiens, UniProt P25929).
T5 construct: host or cells: SK-N-MC neuroblastoma cells
T5 sequence (P25929 1-384): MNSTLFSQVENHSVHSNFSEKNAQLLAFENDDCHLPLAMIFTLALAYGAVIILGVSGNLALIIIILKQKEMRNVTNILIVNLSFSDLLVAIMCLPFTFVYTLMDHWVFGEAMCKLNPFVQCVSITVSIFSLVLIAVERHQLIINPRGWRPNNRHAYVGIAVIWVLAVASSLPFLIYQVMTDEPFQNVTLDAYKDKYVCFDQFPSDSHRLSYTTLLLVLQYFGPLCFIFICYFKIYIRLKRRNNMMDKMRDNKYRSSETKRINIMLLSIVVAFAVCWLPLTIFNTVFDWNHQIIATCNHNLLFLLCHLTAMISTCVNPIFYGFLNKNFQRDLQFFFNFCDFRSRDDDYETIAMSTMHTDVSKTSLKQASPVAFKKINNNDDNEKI
The experiment in a line: Y1R radioligand competition binding, whole SK-N-MC cells, [3H]UR-MK299. The conditions noted are these: SK-N-MC neuroblastoma cells, [3H]UR-MK299 c = […]; read-out: pKi ± SEM hY1R (converted). Here is the method: as §1
Competition binding assays at Y1R-expressing SK-N-MC neuroblastoma cells were performed as previously described using [^3H]UR-MK299 as radioligand (concentration: 0.15 nM).[33] […] (logarithmic form in the case of pKi values).

Assay [4] concerns the target Sulfo-Cy5-[K4]hPP (Homo sapiens) (UniProt P01298). As to conditions: cited from earlier work.
In assay [5] the target is 5-TAMRA-[K18,Nle17,30]hPP (2) (Homo sapiens) (UniProt P01298). The conditions noted are these: cited from earlier work.
The target of assay [6] is Y5 receptor (Homo sapiens) (UniProt Q15761). As to conditions: cited from earlier work.
The target of assay [7] is T2, Y4R. The experiment in a line: radioligand competition binding. As to conditions: cited from earlier work.
Assay [8] concerns the target Y2 receptor (Homo sapiens) (UniProt P49146). As to conditions: cited from earlier work.
Assay [9] has as its target T2, Y4R. The experiment in a line: radioligand competition binding (137 mM Na+). The conditions noted are these: cited from earlier work.
Assay [10] deals with Y1 receptor (Homo sapiens) (UniProt P25929). The conditions noted are these: cited from earlier work.
In assay [11] the target is hY4R-Nluc(intraECL2) (human) (UniProt P50391).
Assay [12] has as its target T6, human neuropeptide Y Y4 receptor (wild-type, CHO-hY4R-Gqi5-mtAEQ cells) (human, UniProt P50391 1-375). The experiment in a line: cell-based or functional assay.
Assay [13] has as its target T7, human neuropeptide Y Y2 receptor (human, UniProt P49146 1-381).
T7 construct: also called hY2R; source: CHO-hY2R cells (from PerkinElmer), intact cells
T7 sequence (looked up): T1 sequence (P49146 1-381)
The experiment in a line: radioligand binding; competition with [^3H]propionyl-pNPY (0.5 nM) at intact CHO-hY2R cells, 23 ± 2 °C, buffer I (sodium-free). The conditions noted are these: one partner purified.

Assay [14] concerns the target T6, human neuropeptide Y Y4 receptor …. The experiment in a line: radioligand binding; competition with [^3H]UR-KK200 (1.0 nM) at intact CHO-hY4R-Gqi5-mtAEQ cells, 23 ± 2 °C, buffer I (sodium-free). As to conditions: one partner purified.
Assay [15] addresses human neuropeptide Y Y1 receptor (human) (UniProt P25929). The experiment in a line: radioligand binding; competition with [^3H]UR-MK299 ([…]) at intact SK-N-MC cells, 23 ± 2 °C, buffer II (150 mM NaCl).
In assay [16] the target is human neuropeptide Y Y5 receptor (human) (UniProt Q15761). The experiment in a line: radioligand binding; competition with [^3H]propionyl-pNPY (5 nM) at intact HEC-1B-hY5R cells, 23 ± 2 °C, buffer II (150 mM NaCl).

The values below come from paper PMC11019746 (ACS Pharmacology & Translational Science, 2024).

In general, Emax refers to the size of the effect at its maximum, as opposed to the concentration needed. The term Kd denotes a measure of binding affinity in units of concentration. In general, pKi refers to the Ki on a negative log10 scale, so that one unit is a factor of ten. Higher therefore signals a low Ki.

`Cc1cc(/C=C/C=C/c2ccc(N(C)C)cc2)cc(C)[n+]1CCCn1cc(CCCCNC(=O)N=C(N)NCCC[C@@H]2NC(=O)CCC(=O)NCCCCNC(=O)N=C(N)NCCC[C@@H](C(=O)N[C@@H](CC(C)C)C(=O)N[C@@H](CCCNC(=N)N)C(=O)N[C@@H](Cc3ccc(O)cc3)C(N)=O)NC(=O)[C@H](Cc3ccc(O)cc3)NC2=O)nn1` [Compound 19]: the Ki at hY2R was greater than 1000 nM; on hY4R [3], 0.603 nM; at hY5R, greater than 1000 nM; at hY1R it was greater than 1000 nM. Also, the Emax on Y4R [1] amounted to 43 ± 1%; on hY4R [2] (read-out: Ca2+-aequorin Emax ± SEM) it was 64 ± 2%. Moreover, the EC50 at hY4R [2] (CHO-hY4R-Gqi5-mtAEQ cells, agonist mode, read-out: Ca2+-aequorin pEC50 ± SEM (converted)) is 56.2 nM.

Y4 receptor (from UniProt P50391): the values for the Kd in assay [4] and in assay [5] were 5.6 nM and 26 nM, respectively.

hPP (from UniProt P01298): the Ki in assay [6] was 17 nM; in the assay with Y4R [7], 0.1 nM; in assay [8] it was greater than 3000 nM; in the assay with Y4R [9] it was 0.079 nM; in [10] it was 440 nM.

On to “human pancreatic polypeptide (from UniProt P01298 30-65)”, for which the pKi in assay [11] was determined as 7.7.

B1: cyclic peptide 11 (alkyne-functionalized precursor peptide) (peptide)
peptide: RYRLRY
modifications: N^α-succinyl; N^ω-[hex-5-ynylaminocarbonyl]-Arg at position 1; N^ω-[(aminobutyl)aminocarbonyl]-Arg at position 3; cyclized via the succinyl carboxylic group and the primary amino group of the carbamoylated arginine in position 3; C-terminal amide
notes: printed in three-letter code for the linear precursor 10: N^α-succinyl-N^ω[hex-5-ynylaminocarbonyl]-Arg-Tyr-N^ω-[(aminobutyl)aminocarbonyl]Arg-Leu-Arg-Tyr-amide; 11 is its cyclized form; source: synthetic peptide (SPPS of linear peptide 10, cyclization in solution, preparative HPLC)
Consider B1, for which, in assay [12], the “EC50, miniGsi recruitment assay (HEK293T-NlucN-mGsi/Y4R-NlucC cells)” value was 73 nM. The pKi was less than 5 in assay [13], less than 5 in assay [15] and less than 5.5 in assay [16]. The molecule also displayed a Ki in assay [14] of 0.42 nM.
